# Values of other authors as cited in publication PMC11759867.
# pKd: −log10 of the molar value.
# Target: MD2 (Homo sapiens) (UniProt Q9Y6Y9)
# Sequence of UniProt Q9Y6Y9 (Q9Y6Y9 19-160): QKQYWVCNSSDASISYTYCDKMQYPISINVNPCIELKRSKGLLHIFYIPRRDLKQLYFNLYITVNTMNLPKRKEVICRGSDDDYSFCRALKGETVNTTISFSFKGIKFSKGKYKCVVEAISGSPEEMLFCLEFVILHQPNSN
substance,measurement,value
CIRP 106-125 (from UniProt Q14011),pKd,6.52
